Test results from patent publication US20080267971A1 (published 2008).
Where a chain is given by its changes, count along the chain named.

B1: mAb 5.83.1 (antibody, V domains shown)
VH: not shown
VL: EIVMTQSPATLSVSPGERATLSCRASQSLISNLAWYQQKPGQAPRLLIFGASTRATGIPARFSGSGSGTEFTLTISSLQSEDFAVYYCHQYNNWWTFGQGTKVEIKR
notes: Human hybridoma IgG (XenoMouse); also called x5.83
B2: mAb 5.54.1 (antibody, V domains shown)
VH: not shown
VL: B1 VL with V85I
notes: Human hybridoma IgG (XenoMouse); also called x5.54
B3: mAb 5.101.1 (antibody, V domains shown)
VH: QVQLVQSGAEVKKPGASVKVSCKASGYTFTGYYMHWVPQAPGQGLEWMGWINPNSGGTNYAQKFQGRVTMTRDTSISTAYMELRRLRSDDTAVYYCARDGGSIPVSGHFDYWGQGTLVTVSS
VL: B1 VL
notes: Human hybridoma IgG (XenoMouse); also called x5.101
B4: mAb 5.86.1 (antibody, V domains shown)
VH: QVQLVQSGAEVKKPGASVKVSCKASGYTFTGYHMYWVRQAPGQGLEWLGWINPNSGGTNYAQKFQGRVTMTRDTSISTAYMELSRLRSDDTAVYYCVRDQGIAAAGPFDYWCQGTLVTVSS
VL: DIRMTQSPSSLSASVGDRVTITCRASQRISTYLNWYQQKPGKAPKFLIYAASSLQSGVPSRFSGSGSGTDFTLTISSLQPEDFATYYCQQSYTTPFTFGPGTKVDIKR
notes: Human hybridoma IgG (XenoMouse); also called x5.86
B5: mAb 5.88.3 (antibody, V domains shown)
VH: EVQMVESGGGLVQPGGSLRLSCAASGFTLRSYWMSWVRQAPGKGLEWVANIKEDGSEKYHVDSVKGRFTISRDNAENSLFLQMSSLRAEDTAVYYCARDMEASAGLFDYWGQGTLVTVSS
VL: B1 VL with T20I, L29I, I30S, F49Y, H89Q, N93Y
notes: Human hybridoma IgG (XenoMouse); also called x5.88
B6: mAb 3.31.2 (antibody, V domains shown)
VH: EVQLVESGGGLVQPGGSLRLSCAASGFTFSSYWMSWVRQAPGKGLEWVANIKQDGSDKYYVDSVKGRFTISRDNAKNSLYLRMNSLRAEDTAVFYCARDMGSGWFDYWGQGTLVTVSS
VL: B1 VL with I2V, L29V, I30G, F49Y, Y87C, H89Q, N93H
notes: Human hybridoma IgG (XenoMouse); also called x3.31
B7: mAb 5.13.1 (antibody, V domains shown)
VH: EVQLVESGGGLVQPGGSLRLSCAASGFTFSSYWMSWVRQAPGKGLEWVANIKQDGSEKYYVDSVKGRFTISRDNAKNSLYLQMNSLRAEDTAVYYCARDPGIAVAGPFDYWGQGTLVTVSS
VL: B1 VL with L29V, I30S, F49Y, H89Q, N93H
notes: Human hybridoma IgG (XenoMouse); also called x5.13
B8: mAb 3.3.2 (antibody, V domains shown)
VH: B7 VH with A24V, P100Q
VL: B1 VL with S28T, L29V, I30S, N32D, F49Y, T53I, Y87S, H89Q, N92Y
notes: Human hybridoma IgG (XenoMouse); also called 3.3.1; x3.3
B9: mAb 5.62.1 (antibody, V domains shown)
VH: B7 VH
VL: B1 VL with L29V, I30S, F49Y, S52F, H89Q, N93H, E104G
notes: Human hybridoma IgG (XenoMouse); also called x5.62
B10: mAb 5.103.1 (antibody, V domains shown)
VH: B4 VH with H33Y, M34L, R38P, L48M, N52S, V97A, G101V, A104V, C112A
VL: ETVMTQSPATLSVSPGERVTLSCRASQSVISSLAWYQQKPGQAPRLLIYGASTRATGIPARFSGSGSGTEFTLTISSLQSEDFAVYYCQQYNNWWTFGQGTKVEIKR
notes: Human hybridoma IgG (XenoMouse); also called 5.103.3; x5.103
B11: mAb 5.52.1 (antibody, V domains shown)
VH: QVQLVESGGGVVQPGRSLRLSCAASGFTFSSYGMHWVRQAPGKGLEWVAVRWYDESNKYYADSVKGRFTISRDNSKNTLYLQMNSLRAEDTAVYYCARDPFETGTTFDYWGQGTLVTVSS
VL: DIQMTQSPSSVSASVGDRVTITCRASQGISSWLAWYQQKPGKAPKLLIYAVSSLESGVPSRFSGSGSGTDFTLTISSLQPEDFATYYCQQALTFGGGTKVEIKR
notes: Human hybridoma IgG (XenoMouse); the line 5.52 has entries of its own (347, 349; light chain L2) that differ from the clone 5.52.1 (L5); also called x5.52
B12: mAb 5.35.1 (antibody, V domains shown)
VH: EVQLVESGGGVVRPGGSLRLSCTTSGFTFDDYGMSWVRQAPGKGLEWVSGINWNGGSTVYADSVKGRFTISRDSAKNSLYLQMNSLRAEDTALYHCARNKQWLWYFDLWGRGTLVTVSS
VL: EIVMTQSPATLSVSPGERATLSCRASQSVSSNLAWYQQKPGQAPRLLIYGASTRATGIPARFSGSGSGTEFTLTISSLQSEDFAVYYCEQYNNWPLTFGGGTKVEIKR
notes: Human hybridoma IgG (XenoMouse); also called x5.35
B13: mAb 5.56.1 (antibody, V domains shown)
VH: QVQLVESGGGVVQPGRSLRLSCAASGFTFSSYGMHWVRQAPGKGLEWVAVIWYDGSNKYYADSVKGRFTISRDNSKNTLYLQMNSLRAEDTAVYYCAREDNWNFYFDYWGQGTLVTVSS
VL: DIQMTQSPSSLSASVGDRVTITCRASQGISYYLAWYQQKPGKVPKLLIYAASTLQSGVPSRFSGSGSGTDFTLTISSLQPEDVATYYCQKYNSAPFTFGPGTKVDIKR
notes: Human hybridoma IgG (XenoMouse); also called x5.56
B14: mAb 5.108.1 (antibody, V domains shown)
VH: QVQLVESGGGVVQPGRSLRLSCAASGFTFSSYGMHWVRQAPGKGLEWVAVIWYDGSNKYYADSVKGRFTISRDNSKNTLYLQMNSLRAEDTAMYYCARELALWGQGTLVTVSS
VL: B1 VL with L29V, I30S, N32Y, F49Y, S52F, S63R, T69P, H89Q, N92S, N93H
notes: Human hybridoma IgG (XenoMouse); also called x5.108
B15: mAb 5.39.1 (antibody, V domains shown)
VH: B4 VH with K12T, G31A, L48M, T91S, A92P, V97A, C112G
VL: B1 VL with E17D, L29V, I30S, L33F, F49Y, A51S, H89Q, N92H, N93Y, I105F
notes: Human hybridoma IgG (XenoMouse); also called x5.39
B16: mAb 5.40.2 (antibody, V domains shown)
VH: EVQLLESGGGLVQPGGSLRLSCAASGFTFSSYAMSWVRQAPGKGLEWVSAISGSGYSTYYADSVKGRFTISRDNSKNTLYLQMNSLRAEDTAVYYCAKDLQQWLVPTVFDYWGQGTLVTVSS
VL: B1 VL with L29V, I30S, A34V, F49Y, G50D, A51S, A60V, H89Q, N93H
notes: Human hybridoma IgG (XenoMouse); also called x5.40

Assays:
human Angiopoietin-2 [1] = biological target: T1, human Angiopoietin-2 (human, UniProt O15123 19-496); assay: inhibition of rhAng-2 binding to its receptor
T1 construct: Mostly bought recombinant protein (R&D Systems 623-AM/CF, 623-AN; biotinylated BT623) or supernatant of transfected 293F cells; also called Ang-2; rhAng-2
T1 sequence: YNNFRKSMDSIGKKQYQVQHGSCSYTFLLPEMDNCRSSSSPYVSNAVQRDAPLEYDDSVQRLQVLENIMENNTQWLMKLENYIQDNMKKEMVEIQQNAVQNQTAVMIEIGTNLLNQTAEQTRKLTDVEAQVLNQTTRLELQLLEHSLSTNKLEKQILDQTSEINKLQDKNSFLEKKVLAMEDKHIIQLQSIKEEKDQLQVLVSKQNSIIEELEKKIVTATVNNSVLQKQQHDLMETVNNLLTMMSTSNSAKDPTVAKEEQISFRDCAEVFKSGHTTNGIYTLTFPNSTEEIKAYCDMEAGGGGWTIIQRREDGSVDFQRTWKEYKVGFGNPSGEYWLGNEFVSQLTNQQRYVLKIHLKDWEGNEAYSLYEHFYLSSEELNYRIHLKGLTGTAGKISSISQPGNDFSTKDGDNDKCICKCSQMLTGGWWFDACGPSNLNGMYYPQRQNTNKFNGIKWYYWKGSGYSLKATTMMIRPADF

human Angiopoietin-2 [2] = biological target: T1, human Angiopoietin-2; assay: competition ELISA: biotin-Ang-2 on coated Tie2/Fc
Experimental: 96-well Nunc Immplates™ were coated with 100 μl of recombinant human Tie2/Fc fusion protein (R&D Systems, Inc., Cat. No. 313-TI-100) at 4 μg/ml by incubating overnight at 4° C. The plates were washed four times using Phosphate Buffer Saline (PBS) with a Skan™ Washer 300 station (SKATRON). The wells were blocked by 100 μl of ABX-blocking buffer (0.5% BSA, 0.1% Tween, 0.01% Thimerosal in PBS) for 1 hour.
The plates were incubated at room temperature for two hours before the unbound molecules were washed off. […] After washing twice, the bound Streptavidin was detected by HRP substrate (R&D Systems, Cat. No. DY998). The plates were incubated for 30 minutes before 450 stop solution (100 μl/well, BioFX, Cat# BSTP-0100-01) was added to terminate the reaction. The light absorbance at 450 nm was determined by a Spectramax Plus reader.
Each concentration of the mAb was tested in duplicate. The concentration-response relationship was found by curve fitting using Graphpad Prism™ graphic software (non-linear, Sigmoid curve). The maximal inhibition (efficacy) and IC₅₀ (potency) were calculated by the software.

human Angiopoietin-2 [3] = biological target: T1, human Angiopoietin-2; assay: cell-based or functional assay

| Binder | OD650 in inhibition assay (human Angiopoietin-2 [1]) [OD650] | EC50 (human Angiopoietin-2 [2]) [µg/mL] | Efficacy (ratio of bound Ang-2 with mAb 30 µg/ml versus without) (human Angiopoietin-2 [2]) [ratio] | EC50, inhibition of Ang-2-induced Tie2 phosphorylation (HEK293F/Tie2, ELISA) (human Angiopoietin-2 [3]) [µg/mL] |
| --- | --- | --- | --- | --- |
| B1 | 0.0484 | – | – | – |
| B2 | 0.044 | – | – | – |
| B3 | 0.0824 | 0.376 | 0.364 | 0.733 |
| B4 | 0.0419 | 0.133 | 0.384 | 0.008 |
| B5 | 0.0874 | 0.156 | 0.403 | 0.016 |
| B6 | 0.0516 | 0.0417 | 0.375 | 0.043 |
| B7 | 0.0744 | – | – | – |
| B8 | 0.0558 | 0.168 | 0.388 | 0.046 |
| B9 | 0.065 | – | – | – |
| B10 | 0.101 | 0.364 | 0.232 | 0.095 |
| B11 | 0.0627 | – | – | – |
| B12 | 0.0663 | – | – | – |
| B13 | 0.0863 | – | – | – |
| B14 | 0.0688 | – | – | – |
| B15 | 0.0519 | – | – | – |
| B16 | 0.0691 | – | – | – |
